Series [1] has as its target factor VIII / factor VIIIa (recombinant human coagulation factor VIII, thrombin-activated) (UniProt P00451).
In series [2] the target is T1, human factor IXa (human, UniProt P00740 47-191; P00740 227-461).
T1 construct: also called FIXa; F IXa
The series can be described thus: SPR (BIACORE), antibody captured by anti-mouse Fc on CM5 chip, FIXa in flow, steady state analysis. The text has this: Polyclonal anti-mouse Fc antibodies were immobilized on a CM5 sensor chip and saturated with the respective monoclonal antibody. As a reference, a non-specific mouse IgG was used.
In general terms: Surface plasmon resonance follows binding to a sensor surface in real time, without labels.

Series [3] has as its target T1, human factor IXa. As to the kind of experiment: cell-based or functional assay.
In series [4] the target is T1, human factor IXa. As to the kind of experiment: cell-based or functional assay. The source holds these as a separate data set.
A further series addresses T2, murine FIX (murine, UniProt P16294 47-471).
T2 construct: also called murine factor IX
The series can be described thus: ELISA and Western blot.

A further series concerns the target T3, bovine FIX (bovine, UniProt P00741 47-462).
T3 construct: also called bovine factor IX
The series can be described thus: ELISA and Western blot.

By Kd is commonly meant the concentration at which binding is half-saturated. A lower Kd goes with higher affinity. By KM is commonly meant the concentration of substrate that gives half-maximal velocity. Usually kcat stands for the maximal rate divided by the concentration of active sites. By kcat/KM is commonly meant the turnover number divided by the Michaelis constant.

T1 sequence (P00740 47-191 limits assumed, chain 1 of 2): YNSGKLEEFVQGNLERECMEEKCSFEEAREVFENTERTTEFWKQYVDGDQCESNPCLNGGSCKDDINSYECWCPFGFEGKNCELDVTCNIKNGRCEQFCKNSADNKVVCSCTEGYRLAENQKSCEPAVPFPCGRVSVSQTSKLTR
T1 sequence (P00740 227-461 limits assumed, chain 2 of 2): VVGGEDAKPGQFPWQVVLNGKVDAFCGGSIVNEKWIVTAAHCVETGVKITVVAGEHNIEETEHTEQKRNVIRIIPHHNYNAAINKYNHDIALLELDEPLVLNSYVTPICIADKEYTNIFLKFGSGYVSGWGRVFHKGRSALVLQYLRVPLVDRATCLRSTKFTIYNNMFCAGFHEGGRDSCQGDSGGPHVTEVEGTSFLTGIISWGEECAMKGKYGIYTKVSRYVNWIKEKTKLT
T2 sequence (P16294 47-471 limits assumed): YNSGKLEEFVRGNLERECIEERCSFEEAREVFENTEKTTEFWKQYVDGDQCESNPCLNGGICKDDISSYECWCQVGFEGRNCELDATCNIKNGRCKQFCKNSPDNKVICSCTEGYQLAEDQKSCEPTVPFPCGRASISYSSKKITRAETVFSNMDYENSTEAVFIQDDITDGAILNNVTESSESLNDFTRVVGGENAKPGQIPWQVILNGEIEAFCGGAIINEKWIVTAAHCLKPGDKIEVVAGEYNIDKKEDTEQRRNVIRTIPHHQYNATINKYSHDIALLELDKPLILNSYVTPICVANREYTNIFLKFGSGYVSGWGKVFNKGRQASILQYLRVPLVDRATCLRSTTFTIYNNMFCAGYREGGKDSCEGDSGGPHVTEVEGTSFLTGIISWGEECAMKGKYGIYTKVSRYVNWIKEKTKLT
factor VIII / factor VIIIa (recombinant human coagulation factor VIII, thrombin-activated), sequence (P00451 20-2351): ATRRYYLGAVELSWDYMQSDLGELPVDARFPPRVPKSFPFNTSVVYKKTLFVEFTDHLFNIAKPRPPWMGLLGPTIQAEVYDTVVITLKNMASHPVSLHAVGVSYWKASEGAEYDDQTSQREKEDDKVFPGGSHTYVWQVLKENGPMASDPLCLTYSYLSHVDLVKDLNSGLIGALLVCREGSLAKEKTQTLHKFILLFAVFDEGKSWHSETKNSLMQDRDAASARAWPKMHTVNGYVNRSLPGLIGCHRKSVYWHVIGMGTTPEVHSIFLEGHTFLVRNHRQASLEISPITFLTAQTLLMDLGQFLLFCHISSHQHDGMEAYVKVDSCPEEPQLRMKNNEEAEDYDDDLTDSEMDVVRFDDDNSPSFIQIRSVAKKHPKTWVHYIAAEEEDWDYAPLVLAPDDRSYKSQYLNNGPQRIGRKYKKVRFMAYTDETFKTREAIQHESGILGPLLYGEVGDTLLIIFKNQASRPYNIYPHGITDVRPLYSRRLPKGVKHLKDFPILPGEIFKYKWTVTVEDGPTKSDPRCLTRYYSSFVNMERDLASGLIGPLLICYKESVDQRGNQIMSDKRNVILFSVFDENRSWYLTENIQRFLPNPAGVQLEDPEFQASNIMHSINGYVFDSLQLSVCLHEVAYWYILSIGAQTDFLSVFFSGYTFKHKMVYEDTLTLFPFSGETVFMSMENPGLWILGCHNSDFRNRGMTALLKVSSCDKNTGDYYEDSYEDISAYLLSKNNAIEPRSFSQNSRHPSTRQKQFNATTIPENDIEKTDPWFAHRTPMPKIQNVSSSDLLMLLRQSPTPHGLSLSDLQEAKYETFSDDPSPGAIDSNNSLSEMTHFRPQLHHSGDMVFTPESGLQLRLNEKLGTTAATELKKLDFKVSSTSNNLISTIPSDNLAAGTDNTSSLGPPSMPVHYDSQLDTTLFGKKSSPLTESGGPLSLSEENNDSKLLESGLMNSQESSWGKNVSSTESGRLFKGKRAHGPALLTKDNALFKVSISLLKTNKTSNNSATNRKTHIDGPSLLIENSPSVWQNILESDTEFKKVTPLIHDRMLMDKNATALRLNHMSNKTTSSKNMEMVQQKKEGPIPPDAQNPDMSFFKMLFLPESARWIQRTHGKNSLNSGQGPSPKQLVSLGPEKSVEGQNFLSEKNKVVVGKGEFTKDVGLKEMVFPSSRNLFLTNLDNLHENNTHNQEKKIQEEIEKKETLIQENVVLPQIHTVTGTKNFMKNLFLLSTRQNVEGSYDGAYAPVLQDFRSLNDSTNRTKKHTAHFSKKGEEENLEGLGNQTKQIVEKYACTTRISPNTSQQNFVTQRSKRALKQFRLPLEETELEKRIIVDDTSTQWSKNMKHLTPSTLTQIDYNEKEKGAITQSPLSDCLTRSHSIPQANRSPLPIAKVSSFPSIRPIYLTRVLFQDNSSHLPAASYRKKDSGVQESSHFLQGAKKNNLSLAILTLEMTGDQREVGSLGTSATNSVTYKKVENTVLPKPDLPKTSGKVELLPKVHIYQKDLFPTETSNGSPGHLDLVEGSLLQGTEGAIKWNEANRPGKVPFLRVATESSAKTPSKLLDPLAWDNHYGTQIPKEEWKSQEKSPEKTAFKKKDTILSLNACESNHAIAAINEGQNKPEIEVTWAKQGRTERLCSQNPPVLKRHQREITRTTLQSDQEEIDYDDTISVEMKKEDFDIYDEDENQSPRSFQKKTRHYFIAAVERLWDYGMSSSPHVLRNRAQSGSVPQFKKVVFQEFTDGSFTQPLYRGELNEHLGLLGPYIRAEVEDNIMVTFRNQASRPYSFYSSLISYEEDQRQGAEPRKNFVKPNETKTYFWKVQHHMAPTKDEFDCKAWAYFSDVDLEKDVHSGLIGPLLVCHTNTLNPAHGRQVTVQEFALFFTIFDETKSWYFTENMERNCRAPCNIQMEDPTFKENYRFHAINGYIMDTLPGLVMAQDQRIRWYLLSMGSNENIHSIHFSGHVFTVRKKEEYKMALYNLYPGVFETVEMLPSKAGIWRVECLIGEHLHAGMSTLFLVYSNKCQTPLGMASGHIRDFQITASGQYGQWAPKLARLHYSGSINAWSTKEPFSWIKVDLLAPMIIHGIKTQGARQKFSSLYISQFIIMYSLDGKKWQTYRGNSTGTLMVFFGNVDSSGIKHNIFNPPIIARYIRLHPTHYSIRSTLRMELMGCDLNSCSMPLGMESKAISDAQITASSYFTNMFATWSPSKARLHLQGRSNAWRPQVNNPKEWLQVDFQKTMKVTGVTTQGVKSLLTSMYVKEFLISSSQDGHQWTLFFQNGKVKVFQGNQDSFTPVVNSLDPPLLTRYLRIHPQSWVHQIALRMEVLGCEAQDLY
T3 sequence (P00741 47-462 limits assumed): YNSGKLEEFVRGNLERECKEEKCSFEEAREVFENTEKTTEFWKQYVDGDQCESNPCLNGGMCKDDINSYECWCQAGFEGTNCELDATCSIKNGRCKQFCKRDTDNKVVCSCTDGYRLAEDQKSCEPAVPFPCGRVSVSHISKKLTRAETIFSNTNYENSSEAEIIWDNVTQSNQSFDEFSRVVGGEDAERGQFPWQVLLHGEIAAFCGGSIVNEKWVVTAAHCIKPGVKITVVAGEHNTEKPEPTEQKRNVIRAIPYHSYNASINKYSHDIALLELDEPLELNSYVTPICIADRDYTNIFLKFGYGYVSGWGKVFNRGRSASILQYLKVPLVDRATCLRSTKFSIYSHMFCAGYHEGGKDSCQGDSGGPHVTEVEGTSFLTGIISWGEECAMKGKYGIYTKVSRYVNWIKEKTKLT

Consider human factor IXa, for which the “decrease of Km of FIXa” value in series [1] was “approximately 2.5-fold”.

B1: antibody 224F3 (antibody, V domains shown)
VH: QVQMQQSGAELVKPGASVKLSCKASGYTFTSQDINWVRQRPEQGLEWIGWIFPGDGSTKYNEKLKGKATLTTDKSSSTAFMQLSRLTSEDSAVYFCARSAYYRYDGSYYYAMDYWGQGTSVTVSS
VL: QIVLTQSPAIMSASLGEEITLTCSASSSVSYMLWYQQKSGTSPKLLIYTTSNLASGVPSRFSGTGSGTFYSLTISSVEAEDAADYYCHQWSSYPRTFGGGTKLEIKR
For B1, binding with human factor IXa [2] was put at a Kd of 477 pM. For the same molecule, in the series with human factor IXa [3], the “enhancement of the rate of FXa formation” value came out at 10 fold and the “increase of kcat of FX activation by FIXa” value was around 10 fold. Also, in the series with human factor IXa [4], the KM is 0.048 µM, the turnover number (kcat) was found to be 0.000883 s⁻¹ and the kcat/KM turned out to be 18300 M⁻¹ s⁻¹. Further, the binding result in the series with murine FIX was “no binding”. Besides, the binding result with bovine FIX was “binds”.

Values taken from US20050058640A1 (BAXTER INTERNATIONAL, published 2005).
